Results taken from the supplement of paper PMC9170038.

Tested on: MS2 coat protein
Test: apparent KD of MS2 coat protein; designed switch direction (-1 OFF switch, 1 ON switch): -1; higher = weaker reporter binding
Method in brief: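 Designed RNA switches sharing common flanks were transcribed on Illumina chips by stalled E. coli RNA polymerase. They were titrated with SNAP-549-labelled MS2 coat protein, from 0.7 or 1.5 nM doubling to 3 µM, in Tris-HCl pH 7.5 buffer with KCl, MgCl2, BSA, DTT, tRNA and Tween-20. Titrations ran without input, with 200 uM small-molecule ligand, or with an oligonucleotide input. The apparent KD of each design is the median over its clusters, after curve-fitting of normalised cluster fluorescence.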

[1] = input ligand: microRNA oligo, concentration not stated
[2] = Eterna round: R95, input ligand: FMN 200 uM
[3] = Eterna round: R95, input ligand: microRNA oligo, concentration not stated
[4] = Eterna round: R95, input ligand: none

Sequence | apparent KD of MS2 coat protein (input ligand: FMN 200 uM) [nM] | apparent KD of MS2 coat protein [1] [nM] | apparent KD of MS2 coat protein (input ligand: none) [nM] | further results
AAAGUCCUAGGAGGAUAUCACCUGCCUAGCACAUGAGAAGGCCUAGGAGACAUGAGGAUCACCCAUGUGUCCUUAGUCGAAAAU [Ensobedi] (Eterna round: R96, puzzle: Exclusion NG 1) | 19.5 | 9.59 | 13.2 | –
AUUAUAUAGAAAGGAUAUUGAUUAUUAUUUUAACAUGAGGAUCACCCAUGUAGCCUUAUGUAUAACAAGAAGGUUCAUUUAUUA [Title] (Eterna round: R96, puzzle: Exclusion NG 2) | – | 58.4 | – | –
UUAUUAUAUGUAGGAUAUGCAUAUUAUUAUUAUGCAGAAGGACAUGAGGAUCACCCAUGUAUGUUAUUAUUAUAUAUUAUAUAU [Title] (Eterna round: R96, puzzle: Exclusion NG 1) | – | 20.7 | – | –
AUGGGUCCUCACGGAGCUACAUGAGGAUCACCCAUGUGGAUUGAGGAUAUCGACUGCCGACGGCUCGAGAAGGCAGUUUACUGU [Ex NG3 #95] (Eterna round: R96, puzzle: Exclusion NG 3) | 18.6 | 14.3 | 20.2 | –
AAAUGUUCGGAGGAUAUAGAACGAUUGUCCGAGCUAGAAGGCCGAACAUGAGGAUCACCCAUGUGUACCUUAAA [Tibiares] (puzzle: Exclusion 6) | – | – | – | apparent KD of MS2 coat protein [2]: 306 nM; apparent KD of MS2 coat protein [3]: 40.1 nM; apparent KD of MS2 coat protein [4]: 53.7 nM
AAGAUGCGGAUAGGAUAUGGAAAAAAAAAAAAAUUAGAAGGGUUGGUUAAAAUACAUGAGGAUCACCCAUGUGAAUCAUGAGAA [AK ExNG1-2.1] (Eterna round: R96, puzzle: Exclusion NG 1) | 159 | 127 | 159 | –
UAUAUAUAGUAAGGAUAUGUAUUUAUUUAAUAAACAGAAGGUACUGACAUGAGGAUCACCCAUGUUUUAGUGUGGGCAUGUAGA [JMF's solution 19] (Eterna round: R96, puzzle: Exclusion NG 1) | – | 66.3 | – | –
UUUUUGUCAGGAUAUACGUAGUAGAACAAUAGUACUACUACGUAGAAGGGACAUGAGGAUCACCCAUGUUCCUC [Fiskers Ex 4 Super stable 44 mod 16] (puzzle: Exclusion 4) | – | – | – | apparent KD of MS2 coat protein [3]: 16 nM
CUGGUCCGAGGAUAUAUAUUGUGAUACAUGAGGAUCACCCAUGUAAUAAUAUGGAUAUAAAUAGAAGGCGGACUAG [Mat - Exclusion 5 - JL mod - D49] (puzzle: Exclusion 5) | – | – | – | apparent KD of MS2 coat protein [2]: 35.8 nM; apparent KD of MS2 coat protein [3]: 23 nM; apparent KD of MS2 coat protein [4]: 27.7 nM
GCUGGAAAAGGAUAUACAUAACGUGCGUCAGCACGAGACCUACAUGAGGAUCACCCAUGUAGAAGGUUUCCAGC [EX2 #75] (Eterna round: R97, puzzle: Exclusion 2) | 22.8 | – | 16.8 | –
AAGCCCUGAGGAUAUCCUUACUCGCACAUGAGGAUCACCCAUGUCCUCCUCCGGGCUUCGGGAGAAGGCAGGUCUC [Megrez-7.7] (Eterna round: R97, puzzle: Exclusion 5) | 40.1 | – | 56.6 | –
GGUCCACAUGAGGAUCACCCAUGUUAGGAUAUCUCGCCCGAGUCCAUAUGGGCCGGGCAGAGAAGGAAUGUGAA [Vevequbi] (puzzle: Exclusion 1) | – | – | – | apparent KD of MS2 coat protein [3]: 17.4 nM
CGAAUGUCAGGAUAUCGUGCAUACAACGAAAGUUCUAUGUGCGAGAAGGGACAUGAGGAUCACCCAUGUCUUCG [Omei Ex4 A14] (Eterna round: R97, puzzle: Exclusion 4) | 75.6 | – | 27.1 | –
GUACUGACAGGAUAUACAUGAGGAUCACCCAUGUGCCCUUAUAGAUGCAAAGCAUCUAGUAGAAGGGUCUGUAC [Omei Ex3 Model Bachelor's Dilema v24] (Eterna round: R97, puzzle: Exclusion 3) | 32.8 | – | 26.9 | –
AGGUCAGAAGGAUAUACAUGAGGAUCACCCAUGUGGGAUACAACGAGCCGUUGUUCAGGUAGAAGGUCUAAAAU [Eternabot (Original) Solution 33] (Eterna round: R97, puzzle: Exclusion 3) | 86 | – | 77.3 | –
